The test system of the data set is CC(=O)N[C@H]1[C@H]([C@H](O)[C@H](O)CO)O[C@](OP(=O)(O)OC[C@H]2O[C@@H](n3ccc(N)nc3=O)[C@H](O)[C@@H]2O)(C(=O)O)C[C@@H]1O. In words: purified protein. The settings on record: 0.5 mM GD3-FCHASE acceptor, 50 mM HEPES pH 7.5, 10 mM MgCl2, 30°C, CMP-Neu5Ac varied 0.25-20 mM.

For orientation: Km means the concentration of substrate that gives half-maximal velocity. A word on the Vmax: it is the rate approached at saturating substrate. As for “PSTMh (MalE-Δ20PSTMh) (Mannheimia haemolytica)”, the Km came out at 1100 ± 50 µM and the Vmax is 1520 µmol/min/mg.

The values are drawn from paper PMC3724679, “Biochemical Characterization of a Polysialyltransferase from Mannheimia haemolytica A2 and Comparison to Other Bacterial Polysialyltransferases” (PLoS ONE, 2013).
